For one substance, stoichiometry N results are on record in PMC4067515.

In the assay the target is recombinant Bet v 1 trimer (birch). As to the kind of experiment: SEC. In general terms: Size exclusion chromatography separates by hydrodynamic size, large species first.

For orientation: stoichiometry N means a count of units in the complex or per binding partner. recombinant Bet v 1 trimer: the stoichiometry N is 2.
